For experiment [1], the target named is recombinant inhibin A (UniProt P05111). As to the kind of experiment: cell-based or functional assay.
Experiment [2] deals with HA-tagged endoglin (endoglin-L) (UniProt P17813). As to the kind of experiment: patch/FRAP on live COS7 cells; HA-endoglin immobilized by IgG cross-linking, Fab'-labeled myc-ALK1 measured; in the presence of 4 nM inhibin A.
The target is the same in experiment [3]. The experiment is described as follows: patch/FRAP on live COS7 cells; HA-endoglin immobilized by IgG cross-linking, Fab'-labeled myc-ALK1 measured; no inhibin.
The target of experiment [4] is T1, endoglin on HMEC-1 human microvascular endothelial cells (human) (UniProt P17813).
T1 sequence (looked up): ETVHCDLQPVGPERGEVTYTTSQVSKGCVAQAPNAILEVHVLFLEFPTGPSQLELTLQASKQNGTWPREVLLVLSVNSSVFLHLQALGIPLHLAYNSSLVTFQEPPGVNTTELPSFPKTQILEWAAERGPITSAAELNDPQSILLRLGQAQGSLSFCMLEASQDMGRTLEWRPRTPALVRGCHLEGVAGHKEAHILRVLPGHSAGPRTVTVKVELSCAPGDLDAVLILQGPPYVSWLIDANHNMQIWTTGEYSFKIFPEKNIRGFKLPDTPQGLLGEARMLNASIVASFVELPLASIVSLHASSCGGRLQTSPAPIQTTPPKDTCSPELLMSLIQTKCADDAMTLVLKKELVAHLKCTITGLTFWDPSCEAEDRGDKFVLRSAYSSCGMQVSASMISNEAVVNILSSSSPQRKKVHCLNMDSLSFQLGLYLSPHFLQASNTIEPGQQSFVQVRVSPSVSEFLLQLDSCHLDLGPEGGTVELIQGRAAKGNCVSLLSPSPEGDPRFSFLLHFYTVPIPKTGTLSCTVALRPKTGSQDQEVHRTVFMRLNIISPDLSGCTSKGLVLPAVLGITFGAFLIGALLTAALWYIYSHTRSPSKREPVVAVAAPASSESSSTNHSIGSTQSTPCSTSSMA
As to the kind of experiment: cell-based or functional assay.

Chain of UniProt P05111 (P05111 233-366 limits assumed, chain 1 of 2): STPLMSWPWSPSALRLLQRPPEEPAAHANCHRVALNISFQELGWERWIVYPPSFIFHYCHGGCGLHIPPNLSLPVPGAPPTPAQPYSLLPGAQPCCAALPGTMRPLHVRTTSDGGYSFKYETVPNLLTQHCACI
Chain of UniProt P05111 (P08476 311-426 limits assumed, chain 2 of 2, further chain): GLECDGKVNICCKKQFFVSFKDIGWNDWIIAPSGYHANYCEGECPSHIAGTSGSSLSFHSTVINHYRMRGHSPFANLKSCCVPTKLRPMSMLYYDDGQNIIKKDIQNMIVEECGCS

In the case of “ALK1-Fc, a human chimeric ALK1 protein (from UniProt P37023 22-118) (Fc fusion)”, in experiment [1], the fold decrease in inhibin A induced permeability of HMEC-1 monolayer at 4 h (FITC-dextran), 10 ng/mL ALK1-Fc turned out to be 1.5 times. On to “myc-tagged ALK1 (from UniProt P37023 22-503) (receptor)”, for which the reduction in Rf (mobile fraction) in experiment [2] was 70%; in experiment [3], 45%.

B1: Tracon 105 (TRC105), a humanized endoglin monoclonal antibody (antibody, INN chains, looked up, V domains shown)
VH: EVKLEESGGGLVQPGGSMKLSCAASGFTFSDAWMDWVRQSPEKGLEWVAEIRSKASNHATYYAESVKGRFTISRDDSKSSVYLQMNSLRAEDTGIYYCTRWRRFFDSWGQGTTLTVSS
VL: QIVLSQSPAILSASPGEKVTMTCRASSSVSYMHWYQQKPGSSPKPWIYATSNLASGVPVRFSGSGSGTSYSLTISRVEAEDAATYYCQQWSSNPLTFGAGTKLELK
Take B1: in experiment [4], the fold decrease in inhibin A induced permeability of HMEC-1 monolayer at 4 h (FITC-dextran), 100 µg/mL TRC105 amounted to 2.2 times.
